The values below come from PMC8026774 (Cellular and molecular neurobiology, 2020).

Usually Ki stands for a dissociation constant, usually derived from enzyme kinetics or from competition with a known ligand. A low value points to higher affinity.

Where no end group is shown, it is not given here.

Experiment [1] concerns the target MOR-1 (untagged) (mouse, UniProt P42866 1-398). Description: radioligand binding.
Experiment [2] concerns the target T1, MOR-1-PK (mouse, UniProt P42866 1-398). Description: radioligand binding.
Experiment [3] has as its target MOR-TR-PK (mouse). Put plainly: cell-based or functional assay.
Experiment [4] deals with T1, MOR-1-PK. Put plainly: cell-based or functional assay.
Experiment [5] addresses MOR-1A-PK (mouse). Put plainly: cell-based or functional assay.
For experiment [6], the target named is MOR-1B1-PK (mouse). Description: cell-based or functional assay.
Chain of MOR-1B1-PK (mouse) (P42866 whole entry): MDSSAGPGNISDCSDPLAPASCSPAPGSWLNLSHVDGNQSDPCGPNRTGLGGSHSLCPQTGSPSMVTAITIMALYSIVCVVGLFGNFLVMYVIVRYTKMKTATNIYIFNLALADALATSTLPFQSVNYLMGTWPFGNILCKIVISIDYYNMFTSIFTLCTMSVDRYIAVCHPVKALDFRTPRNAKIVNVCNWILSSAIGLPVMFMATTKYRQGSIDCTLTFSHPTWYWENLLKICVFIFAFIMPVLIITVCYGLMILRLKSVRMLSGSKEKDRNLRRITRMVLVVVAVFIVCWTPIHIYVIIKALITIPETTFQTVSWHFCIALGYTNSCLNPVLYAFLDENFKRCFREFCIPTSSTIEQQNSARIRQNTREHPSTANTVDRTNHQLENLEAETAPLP
Experiment [7] has as its target MOR-1E-PK (mouse). Put plainly: cell-based or functional assay.

T1 sequence (P42866 whole entry): as above
Chain of MOR-1E-PK (mouse) (P42866 whole entry): as above
Chain of MOR-TR-PK (mouse) (P42866 whole entry): as above
Chain of MOR-1A-PK (mouse) (P42866 whole entry): as above
Chain of MOR-1 (untagged) (P42866 whole entry): as above

B1: β-endorphin (peptide)
peptide: YGGFMTSEKSQTPLVTLFKNAIIKNAYKKGE
modifications: not fully specified
As to B1, the Ki was 6.22 nM in experiment [1] and 10.4 nM in experiment [2]. For the same molecule, the “[35S]GTPγS binding (G-protein activation), EC50” value is 691 nM in experiment [3]; 118 nM in experiment [4]; 112 nM in experiment [5]; 141 nM in experiment [6]; 23 nM in experiment [7].
